From publication PMC4542195 (mBio, 2015)

Target: the molecule itself
Assay: SEC

B1: VanTG catalytic (C-terminal cytoplasmic) domain, residues 339 to 712, as used in solution (size excl (domain or fragment)
chain: TADTDRAYLEINLNNLEHNVNTLQKAMSPKCELMAVVKAEAYGHGMYEVTTYFEPIGVFYLAVATIDEGIRLRKYGIFSEILILGYTSPSRAKELCKFELTQTLIDYRYLLLLNKQGYDIKAHIKIDTGMHRLGFSTEDKDKILAAFFLKHIKVAGIFTHLCAADSLEEKEVAFTNKPIGSFYKVLDWPKSSGLNIPKVNIQTSYGLWNIQSWNVIYQSGVALYGVLRSTNDKTKLETDLRACSFLKAKVVLIRKIKQGGSVGYSRAFTATRDSLIAILPIGYADGFPRNLSCGNSYVLIGGRQAPIVGKICMDQLAVDVTDIPNVKTGSIATLIGKDGKEEITAPMVAESAESITNELLSRMEHRLNIIRRA
  stoichiometry N: 2
